{"source": "paper PMC4772974", "about": "(EMBO Reports, 2016)", "molecules": {"B1": {"name": "MBP‐Plk4‐WT (enzyme, UniProt O00444 1-970, looked up)", "chain": "MATCIGEKIEDFKVGNLLGKGSFAGVYRAESIHTGLEVAIKMIDKKAMYKAGMVQRVQNEVKIHCQLKHPSILELYNYFEDSNYVYLVLEMCHNGEMNRYLKNRVKPFSENEARHFMHQIITGMLYLHSHGILHRDLTLSNLLLTRNMNIKIADFGLATQLKMPHEKHYTLCGTPNYISPEIATRSAHGLESDVWSLGCMFYTLLIGRPPFDTDTVKNTLNKVVLADYEMPSFLSIEAKDLIHQLLRRNPADRLSLSSVLDHPFMSRNSSTKSKDLGTVEDSIDSGHATISTAITASSSTSISGSLFDKRRLLIGQPLPNKMTVFPKNKSSTDFSSSGDGNSFYTQWGNQETSNSGRGRVIQDAEERPHSRYLRRAYSSDRSGTSNSQSQAKTYTMERCHSAEMLSVSKRSGGGENEERYSPTDNNANIFNFFKEKTSSSSGSFERPDNNQALSNHLCPGKTPFPFADPTPQTETVQQWFGNLQINAHLRKTTEYDSISPNRDFQGHPDLQKDTSKNAWTDTKVKKNSDASDNAHSVKQQNTMKYMTALHSKPEIIQQECVFGSDPLSEQSKTRGMEPPWGYQNRTLRSITSPLVAHRLKPIRQKTKKAVVSILDSEEVCVELVKEYASQEYVKEVLQISSDGNTITIYYPNGGRGFPLADRPPSPTDNISRYSFDNLPEKYWRKYQYASRFVQLVRSKSPKITYFTRYAKCILMENSPGADFEVWFYDGVKIHKTEDFIQVIEKTGKSYTLKSESEVNSLKEEIKMYMDHANEGHRICLALESIISEEERKTRSAPFFPIIIGRKPGSTSSPKALSPPPSVDSNYPTRERASFNRMVMHSAASPTQAPILNPSMVTNEGLGLTTTASGTDISSNSLKDCLPKSAQLLKSVFVKNVGWATQLTSGAVWVQFNDGSQLVVQAGVSSISYTSPNGQTTRYGENEKLPDYIKQKLQCLSSILLMFSNPTPNFH"}}, "key": {"PCM1": {"target": "PCM1 (UniProt Q15154)", "assay": "RFP-Trap co-IP, mCherry-PCM1 with EGFP-PCM1", "conditions": "reference: mCherry-PCM1-WT* with EGFP-PCM1-WT*; sites S372"}, "BBS4": {"target": "BBS4 (UniProt Q96RK4)", "assay": "GFP-Trap co-IP, immunoblot", "conditions": "reference: EGFP-PCM1-WT*; sites S372"}, "Cep290": {"target": "Cep290 (UniProt O15078)", "assay": "GFP-Trap co-IP, immunoblot", "conditions": "reference: EGFP-PCM1-WT*; sites S372"}, "His‐PCM1 (a.a. 1–1,128)": {"target": "T1, His‐PCM1 (a.a. 1–1,128) (human, UniProt Q15154 1-1128)", "T1 sequence (looked up)": "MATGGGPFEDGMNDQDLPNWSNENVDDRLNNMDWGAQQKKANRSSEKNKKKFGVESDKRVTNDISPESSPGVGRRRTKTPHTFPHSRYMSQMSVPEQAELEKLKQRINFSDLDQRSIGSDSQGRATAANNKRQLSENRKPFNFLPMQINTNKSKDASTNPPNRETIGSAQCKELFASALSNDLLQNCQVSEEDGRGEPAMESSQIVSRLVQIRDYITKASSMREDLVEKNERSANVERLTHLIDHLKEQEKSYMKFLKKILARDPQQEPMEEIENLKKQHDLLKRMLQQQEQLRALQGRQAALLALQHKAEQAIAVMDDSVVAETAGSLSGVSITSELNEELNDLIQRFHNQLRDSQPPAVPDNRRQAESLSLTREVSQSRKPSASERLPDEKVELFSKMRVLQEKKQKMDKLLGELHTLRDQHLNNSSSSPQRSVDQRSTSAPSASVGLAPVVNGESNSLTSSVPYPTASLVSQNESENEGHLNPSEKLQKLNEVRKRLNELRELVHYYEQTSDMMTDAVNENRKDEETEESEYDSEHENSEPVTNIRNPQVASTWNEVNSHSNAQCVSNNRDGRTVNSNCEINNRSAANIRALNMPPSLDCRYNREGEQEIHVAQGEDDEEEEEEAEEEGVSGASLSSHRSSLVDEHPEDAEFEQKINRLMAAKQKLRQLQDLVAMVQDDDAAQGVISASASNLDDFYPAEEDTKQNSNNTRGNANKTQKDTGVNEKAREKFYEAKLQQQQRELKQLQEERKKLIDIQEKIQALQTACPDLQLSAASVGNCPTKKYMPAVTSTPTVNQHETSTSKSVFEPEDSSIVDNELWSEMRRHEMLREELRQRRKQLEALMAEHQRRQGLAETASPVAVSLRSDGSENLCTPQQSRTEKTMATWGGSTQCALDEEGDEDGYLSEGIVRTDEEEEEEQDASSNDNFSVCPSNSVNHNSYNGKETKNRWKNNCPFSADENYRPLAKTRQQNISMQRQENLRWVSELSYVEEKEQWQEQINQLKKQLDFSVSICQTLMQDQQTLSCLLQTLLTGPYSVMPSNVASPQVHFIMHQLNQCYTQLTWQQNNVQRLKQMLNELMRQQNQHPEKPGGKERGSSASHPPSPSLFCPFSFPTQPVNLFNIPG", "assay": "pull-down; MBP-Plk4 on Dynabeads Protein G coupled with anti-MBP antibody; 8 μg His-PCM1(1128) in 600 μl binding buffer (50 mM Tris-HCl pH 7.5, 200 mM NaCl, 2 mM MgCl2, 0.5 mg/ml BSA, 0.05% NP-40), 4°C, 2 h; Coomassie and anti-His blot", "conditions": "both partners purified"}}, "data": [{"molecule": "PCM1 (from UniProt Q15154) mCherry-PCM1-S372A* with EGFP-PCM1-WT*", "values": [{"measurement": "binding against the reference", "setting": "PCM1", "result": "weaker"}]}, {"molecule": "PCM1 (from UniProt Q15154) EGFP-PCM1-S372A*", "values": [{"measurement": "binding against the reference", "setting": "BBS4", "result": "weaker"}, {"measurement": "binding against the reference", "setting": "Cep290", "result": "weaker"}]}, {"molecule": "B1", "values": [{"measurement": "binding result", "setting": "His‐PCM1 (a.a. 1–1,128)", "result": "binds"}]}]}
